According to patent US20170267762A1 (APOLLOMICS, published 2017):
Residue numbers refer to the chain shown, from its start. Values belong to the binder of their own block, whether it stands above or below them.

Tests used:
[1] = biological target: T1, human PD-1 (construct not stated) (human, UniProt Q15116 25-167, limits assumed); test: Biacore, antibody captured, PD-1 analyte
T1 construct: also called PD-1 analyte
Procedure: (§1) To further characterize the binding characteristics of the antibodies, 10 hybridoma antibodies were profiled using Biacore (Biacore 3000, GE) to elucidate binding kinetics and calculate equilibrium binding constants. This assay was performed by capture method, using the mouse antibody capture kit (BR-1008-38, GE). After diluting anti-mouse Fc mab to 25 μg/ml in pH 5.0 immobilization buffer, immobilization was conducted with the parameters shown in Table 6 at a flow rate of 5 μl/min. The kinetic runs were done by 1) injecting ligand for typical 0.5-1 min at flow rate of 10 μl/min.; 2) injecting analytes of choice for typical 3 min followed by dissociation in running buffer (1× PBS-P20) for typical 5-10 min at flow rate of 30 μl/min.; and 3) injecting regeneration solution 10 mM Glycine pH1.7 for typical 1-2 min at flow rate of 10 μl/min.

human CTLA4 = biological target: T2, human CTLA4 (human, UniProt P16410 36-161, limits assumed); test: Interaction with CTLA4, ICOS CD28; assay not detailed
T2 sequence (looked up): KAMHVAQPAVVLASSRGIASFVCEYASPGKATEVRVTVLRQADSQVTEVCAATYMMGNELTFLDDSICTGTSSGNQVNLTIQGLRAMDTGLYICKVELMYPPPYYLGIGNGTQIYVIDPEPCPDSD

human CD28 = human CD28 (human, UniProt P10747 19-152, limits assumed); test: as above
human CD28, sequence (P10747 19-152 limits assumed): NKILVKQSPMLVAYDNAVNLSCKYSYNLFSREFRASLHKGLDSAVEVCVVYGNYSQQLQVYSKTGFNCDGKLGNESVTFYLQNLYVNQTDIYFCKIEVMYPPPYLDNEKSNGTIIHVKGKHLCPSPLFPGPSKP

human ICOS = biological target: T3, human ICOS (human, UniProt Q9Y6W8 21-140, limits assumed); test: as above
T3 sequence (looked up): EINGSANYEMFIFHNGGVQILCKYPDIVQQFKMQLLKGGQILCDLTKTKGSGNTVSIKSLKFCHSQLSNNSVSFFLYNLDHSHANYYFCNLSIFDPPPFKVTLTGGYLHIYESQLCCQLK

mouse PD-1 = biological target: T4, mouse PD-1 (mouse, UniProt Q02242 25-169, limits assumed); test: assays not detailed
T4 sequence (looked up): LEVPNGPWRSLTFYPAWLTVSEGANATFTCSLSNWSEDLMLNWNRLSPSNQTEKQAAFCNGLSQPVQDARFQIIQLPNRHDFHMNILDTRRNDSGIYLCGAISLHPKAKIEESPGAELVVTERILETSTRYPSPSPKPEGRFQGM

[2] = biological target: T5, human PD-1 on cells (293T cells transfected with human PD-1) (human, UniProt Q15116 25-288); test: FACS blockage on hPD-1-293T cells, competitor biotin PD-L1
T5 construct: whole, on cells; Also used as the target for the functional rows, where PD-1 stands on human T cells
T5 sequence (Q15116 25-288): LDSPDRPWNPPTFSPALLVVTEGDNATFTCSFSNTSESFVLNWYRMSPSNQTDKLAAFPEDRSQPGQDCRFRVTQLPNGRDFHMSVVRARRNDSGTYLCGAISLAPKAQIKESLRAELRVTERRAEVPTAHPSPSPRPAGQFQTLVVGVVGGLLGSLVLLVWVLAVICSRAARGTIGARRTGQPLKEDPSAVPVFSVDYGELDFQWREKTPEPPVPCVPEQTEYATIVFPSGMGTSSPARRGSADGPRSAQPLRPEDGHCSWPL
Procedure: (§2) Various concentrations of the testing hybridoma antibodies were added to the cell suspension and incubated at 4° C. for 60 minutes in 96 well plates. […] Plates were washed 3 times, and mouse anti-biotin PE antibody (Biolgend, cat# 409004) was added. Flow cytometric analyses were performed using a FACS Array.
(§3) The purified hybridoma antibodies were characterized further based on ELISA and FACS analyses.

[3] = biological target: T1, human PD-1 (construct not stated); test: Biacore (summary table; unit from Table 7)
Procedure: as §1

[4] = biological target: T6, human PD-1 extracellular domain fused with mouse Fc (PD-1-mFc) (human, UniProt Q15116 25-170); test: blockage ELISA, competitor PDL-1-mFc-biotin (summary table; IC50 in ng/ml in Table 2)
T6 construct: extracellular domain; not used because of the label; also called hPD-1-mFc; human PD-1-mouse Fc fusion protein
T6 sequence (Q15116 25-170): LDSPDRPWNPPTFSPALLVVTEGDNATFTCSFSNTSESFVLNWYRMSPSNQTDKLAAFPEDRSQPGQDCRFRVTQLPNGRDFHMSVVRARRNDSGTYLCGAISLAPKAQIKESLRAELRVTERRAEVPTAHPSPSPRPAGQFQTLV
Procedure: (§4) PD-1-mFc antigen (CrownBio) was suspended in PBS (Hyclone,Cat No:SH30256.01B) buffer (2 ug/ml, 100 ul/ well) and coated on the 96 well plate (costar, Cat No.:9018) 4° C. overnight. Plates were washed 3 times using washing buffer: PBS+0.05% Tween 20(Sigma, Cat No.:P1379). 200 ul of blocking buffer (PBS+1%BSA(Roche, Cat No.:738328)), was added to each well, incubated at 37° C. for 1 hour, and washed 3 times. Various concentrations (suitable dilutions of hybridoma supernatant in PBS) of the anti-PD-1 Abs were added to the wells (100 μl/well) and incubated at 37° C. for 1 hour. […] Secondary antibody (Avidin HRP eBioscience cat No.:E07418-1632, 1:500, 100 ul/well) was added, incubated at 37 ° C. for 0.5 hour, and washed 3 times. TMB (Sigma, Cat No.: T0440, 100 ul/well) was added, and incubated for 3 min at RT. To stop the reaction, 2N H2SO4 (100 ul/well), was added. The colorimetric signals were developed and read at 450 nm using a Auto Plate SpectraMax Plus (Supplier: Molecular Devices; Model: MNR0643; Software: SoftMax Pro v5.4).

[5] = biological target: T7, human PD-1 extracellular domain fused with human Fc tag (hPD-1-hFc) (human); test: ELISA on coated PD1-hFc
T7 construct: also called human PD-1-hFc
T7 sequence (chain, as listed by the source limits assumed): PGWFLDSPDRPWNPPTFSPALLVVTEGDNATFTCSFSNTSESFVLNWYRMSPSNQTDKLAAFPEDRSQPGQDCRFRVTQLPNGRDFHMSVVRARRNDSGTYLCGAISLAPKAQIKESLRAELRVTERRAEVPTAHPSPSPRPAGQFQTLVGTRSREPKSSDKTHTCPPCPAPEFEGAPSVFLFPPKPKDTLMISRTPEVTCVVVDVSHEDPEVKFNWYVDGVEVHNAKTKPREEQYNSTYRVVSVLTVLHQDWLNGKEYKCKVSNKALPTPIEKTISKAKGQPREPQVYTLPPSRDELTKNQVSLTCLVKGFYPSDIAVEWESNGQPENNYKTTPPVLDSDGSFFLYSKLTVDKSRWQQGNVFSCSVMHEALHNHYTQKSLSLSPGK
Procedure: (§5) ELISA binding analysis was conducted based on human PD-1-hFc Protein. 96-well plates (Costar, Cat No:9018) were coated with 100 μL of 2 μg/ml PD1-hFc (CrownBio) in coating buffer (PBS, Hyclone, Cat No:SH30256.01B) overnight at 4° C. The wells were aspirated and non-specific binding sites were blocked by adding 200 μL of blocking buffer with 1% (w/v) of bovine serum albumin (BSA, Roche, Cat No: 738328) and incubating for 1 hour at 37° C. After the plates are washed three times with wash buffer (PBS with 0.05%(v/v) Tween20 (Sigma, Cat No:P1379), 100 μL/well of a suitable dilutions of hybridoma supernatant in blocking buffer were added and incubated at room temperature for 1 hour. The plates were washed and incubated with 100 μL/well of Goat anti-Mouse IgG (H+L) (Thermo, Cat No: 31432) in blocking buffer for 60 min. After the plates were washed, 100 μL/well of substrate solution (TMB(eBioscience, Cat No:00-4201-56) was added and the plates were incubated for 2min at room temperature. 100 μL/well of stop solution (2N H2SO4) was added to stop the reaction. The colorimetric signals were developed and read at 450 nm using a Auto Plate SpectraMax Plus (Supplier: Molecular Devices; Model: MNR0643; Software: SoftMax Pro v5.4).
as §3

[6] = biological target: T5, human PD-1 on cells (293T cells …); test: FACS blockage on hPD-1-293T cells, competitor biotin PD-L2
Procedure: as §2, §3

[7] = biological target: T7, human PD-1 extracellular domain fused …; test: ELISA binding (summary table)
Procedure: as §5, §3

[8] = biological target: T6, human PD-1 extracellular domain fused …; test: blockage ELISA, coated PD-1-mFc, competitor PDL-1-mFc-biotin
Procedure: as §4, §3

[9] = biological target: T6, human PD-1 extracellular domain fused …; test: as above; remark: listed apart in the source
Procedure: as §4
(§6) Freestyle 293 cells (200 mL at 10⁶/mL) were transfected with 100 μg of each of the chimeric heavy and light chain expression plasmids and cultured for 6 days. The chimeric antibody in the supernatant was then purified with Protein-G column (GE healthcare).

[10] = biological target: T7, human PD-1 extracellular domain fused …; test: ELISA on coated PD1-hFc; remark: listed apart in the source
Procedure: as §5, §6

[11] = biological target: T5, human PD-1 on cells (293T cells …); test: FACS on hPD-1-293T cells
Procedure: The cells were incubated with the indicated antibody (20 ug/ml with the dilution of ⅕) at 4° C. for 1 h. Cells were washed three times with FACS buffer. A secondary antibody (PE Goat anti-mouse: 1:200; PE mouse anti-human: 1:10) was added to the cells at 100 ul/well, and incubated at 4° C. for 40min. Cells were washed three times with FACS buffer and analyzed by FACS Array.
as §6

[12] = biological target: T5, human PD-1 on cells (293T cells …); test: FACS blockage on hPD-1-293T cells, competitor biotin PD-L1; remark: listed apart in the source
Procedure: as §2, §6

T1 sequence (Q15116 25-167 limits assumed): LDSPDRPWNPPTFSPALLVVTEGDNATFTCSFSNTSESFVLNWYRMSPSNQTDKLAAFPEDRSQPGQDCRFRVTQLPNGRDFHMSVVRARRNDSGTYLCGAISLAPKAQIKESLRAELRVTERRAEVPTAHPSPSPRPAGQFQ

B1: 10D1 murine anti-PD-1 antibody (antibody, V domains shown)
VH: EVKLVESGGGLVKPGGSLKLSCAASGFTFSSYGMSWLRQTPEKRLEWVATMSGGGRDIYYPDSMKGRFTISRDNAKNNLYLQMSSLRSEDTALYYCARQYYDDWFAYWGQGTLVTVSA
VL: DIVLTQTPATLSVTPGDSVSLSCRASQSISNNLHWYQQKSHESPRLLIKYASQSISGIPSRFSGSGSGTDFTLNINSVETEDFGMYFCQQSNSWPLTFGAGTKLELKR
notes: Purified hybridoma antibody; also called 10D1-mIgG1
Ka [1]: 1.6e+10 M⁻¹
Kd [1]: 62.3 pM
koff [1]: 5.24e-05 s⁻¹
kon [1]: 840000 M⁻¹ s⁻¹
binding result (human CTLA4): no binding
binding result (human CD28): no binding
binding result (human ICOS): no binding
binding result (mouse PD-1): no binding
IC50 [2]: 0.0369 µg/mL
Kd [3]: 62.3 pM
IC50 [4]: 1.41 µg/mL
EC50 [5]: 0.0172 µg/mL
IC50 [6]: 0.15 µg/mL
EC50 [7]: 0.0172 µg/mL
IC50 [8]: 1.41 µg/mL

B4: 14A6 murine anti-PD-1 antibody (antibody, V domains shown)
VH: DVQLQESGPGLVKPSQSLSLTCTVTGYSITSDYAWNWIRQFPGNQLEWMAYISYSGYTSYNPSLKSRISITRDTSRNQFFLQLNSVTTEDTATYYCARSLDYDYGTMDYWGQGTSVTVSS
VL: QIVLSQSPAILSASPGEKVTMTCRANSSVSSMHWYQQKPGSSPEPWIYAISNLAFGVPARFSGSGSGTSYSLTISRVEAEDAATYFCQQWNSRPPTFGGGTKLEIKR
notes: Purified hybridoma antibody; also called 14A6-mIgG1
Ka [1]: 3.33e+10 M⁻¹
Kd [1]: 30 pM
koff [1]: 4.52e-05 s⁻¹
kon [1]: 1.51e+06 M⁻¹ s⁻¹
binding result (human CTLA4): no binding
binding result (human CD28): no binding
binding result (human ICOS): no binding
binding result (mouse PD-1): no binding
IC50 [2]: 0.0211 µg/mL
Kd [3]: 30 pM
IC50 [4]: 0.923 µg/mL
EC50 [5]: 0.00707 µg/mL
IC50 [6]: 0.092 µg/mL
EC50 [7]: 0.00707 µg/mL
IC50 [8]: 0.923 µg/mL

B5: chimeric 15H5-hIgG4 (antibody, V domains shown)
VH: EVKLVESGGGLVKPGGSLKLSCAASGFAFRSYDMSWVRQTPEKILEWVATISGGGSYTYYQDSVKGRFTISRDNARNTLYLQMSSLRSEDTALYYCASPYGPYFDYWGQGTTLTVSS
VL: DIQMNQSPSSLSASLGDTITITCHASQSINVWLSWYQQKPGNIPKLLIYRASNLHTGVPSRFSGSGSGTGFTLTISSLQPDDIATYYCQQGQSYPWTFGGGTKLEIKR
notes: Mouse variable regions with human IgG4 constant region
IC50 [9]: 1.37 µg/mL
EC50 [10]: 0.0818 µg/mL
EC50 [11]: 0.244 µg/mL
IC50 [12]: 0.101 µg/mL

B7: 5A8 murine anti-PD-1 antibody (antibody, V domains shown)
VH: QVQLQQSGDELVRPGTSVKMSCKAAGYTFTNNWIGWVKQRPGHGLEWIGDFYPGGGYTNYNEKFKGKATLTADTSSSTAYMQLSSLTSEDSAIYYCARGYGTNYWYFDVWGAGTTVTVSS
VL: NIVMTQTPKILFISAGDRVTITCKASQSVSNDVAWYQQKPGQSPKLLIYYAFTRYIGVPDRFTGSGYGTDFTFTISTVQAEDLAVYFCQQDYSSPYTFGGGTKLEIKR
notes: Purified hybridoma antibody; also called 5A8-mIgG1
Ka [1]: 1.7e+10 M⁻¹
Kd [1]: 58.7 pM
koff [1]: 7.55e-05 s⁻¹
kon [1]: 1.29e+06 M⁻¹ s⁻¹
binding result (human CTLA4): no binding
binding result (human CD28): no binding
binding result (human ICOS): no binding
binding result (mouse PD-1): no binding
IC50 [2]: 0.0282 µg/mL
Kd [3]: 58.7 pM
IC50 [4]: 1.13 µg/mL
EC50 [5]: 0.0112 µg/mL
IC50 [6]: 0.0188 µg/mL
EC50 [7]: 0.0112 µg/mL
IC50 [8]: 1.13 µg/mL

The remaining lines, values ahead:

IC50 [9]: 0.869 µg/mL
EC50 [10]: 0.0325 µg/mL
EC50 [11]: 0.143 µg/mL
IC50 [12]: 0.054 µg/mL
B2: chimeric 6E1-hIgG4 (antibody, V domains shown)
VH: B1 VH with L37V, M51I, I58T, P61L, M64V, A97V, T115S, V116N
VL: B1 VL with I29L, N74S, L106M
notes: as for B5

IC50 [9]: 0.948 µg/mL
EC50 [10]: 0.0517 µg/mL
EC50 [11]: 0.131 µg/mL
B3: chimeric 7D3-hIgG4 (antibody, V domains shown)
VH: B1 VH with A23G, L37V, M51I, M64V, F68L, A97V
VL: B1 VL with T7S, N32D, A51V, N74S, N92D
notes: as for B5

IC50 [9]: 1.01 µg/mL
EC50 [10]: 0.0413 µg/mL
EC50 [11]: 0.145 µg/mL
IC50 [12]: 0.0843 µg/mL
B6: chimeric 22A5-hIgG4 (antibody, V domains shown)
VH: EVKLVESGGGLVKPGGSLKLSCSASGFSFSYYDMSWVRQTPEKGLEWVATISGGGRNTYFIDSVKGRFTISRDNVKNNLYLLMSSLRSEDTALYYCASPYEGAVDFWGQGTSVTVSS
VL: DIVMTQSHKVMSTSVGDRVSITCKASQDVDNAVAWYQQNPGQSPKLLIKWASTRHHGVPDRFTGSGSGTDFTLTISTVQSEDLADFFCQQYSTFPYTFGGGTKLEIKR
notes: as for B5
